This note sets out measurements from article PMC5423696.

A word on the Kd: it is the concentration at which binding is half-saturated. A low value points to a tighter complex.

For the assay, the target named is LAMP1_(distal)-Fc (human). The assay is described as follows: SPR.

Substance “GP1_(LASV)-Fc (from UniProt P08669 75-237) (Fc fusion)” displayed a Kd of 0.015 µM.
